# Laboratory results reported in the supplement of paper PMC9732359.
# ± gives the uncertainty stated by the source.
# Experiment: protein stability index of a GFP-peptide fusion (yeast GPS) (PSI 1-4); higher = more stable; sorted into four equal gates, so the index is relative within each strain
# Method in brief: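 Plasmids in a pooled yeast library fused tiled 17-residue yeast protein peptides downstream of GFP and also expressed Cherry. Mid-log cultures grown without leucine were sorted into four equal gates by GFP/Cherry fluorescence ratio. Each gate's plasmids were PCR-amplified and Illumina-sequenced, and reads were matched to strains by barcodes. The protein stability index is derived by multiplying each gate's read frequency by its gate number and summing the results.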
Sequence,protein stability index (doa10∆),protein stability index (pdr5∆),protein stability index (san1∆),protein stability index (ubr1∆)
KMSDGFNGADIRNCATE [RPT4],3.43 ± 0.074,3.47 ± 0.059,3.35 ± 0.041,3.3 ± 0.043
LGFEVKDQALIGTINSI [SIR2],2.12 ± 0.051,2.48 ± 0.062,2.27 ± 0.054,2.35 ± 0.073
ELISLRKILESSNIVNE [YIL149C/MLP2],2.17 ± 0.089,2.53 ± 0.068,2.33 ± 0.064,2.12 ± 0.1
INNLPPEKEASSATIVL [YCG1],2.55 ± 0.16,2.88 ± 0.14,2.29 ± 0.19,2.52 ± 0.073
GFSPTSPTYSPTSPAYS [RPO21],2.81 ± 0.052,2.74 ± 0.043,2.94 ± 0.051,2.39 ± 0.038
KDAEDETSSDGSKSDGS [RPN1],3.38 ± 0.051,3.41 ± 0.054,3.64 ± 0.047,3.29 ± 0.035
ANLPANSSTSPAPSIPS [YLR335W/NUP2],2.94 ± 0.037,3.1 ± 0.037,2.95 ± 0.03,2.856 ± 0.027
SVQTFGKKKSATAVAHV [RPS16A],2.37 ± 0.065,2.49 ± 0.069,2.19 ± 0.11,2.1 ± 0.069
NIDTITDAMTESQPKQT [MCD1],2.71 ± 0.14,3.02 ± 0.11,3 ± 0.076,3.32 ± 0.087
RYFFWLQEKNSGNLPLN [RPN13],3.04 ± 0.16,3 ± 0.085,2.81 ± 0.063,2.87 ± 0.11
SIGKNPFNKPNIETGEN [SWI3],3.04 ± 0.055,3.03 ± 0.048,2.87 ± 0.037,2.97 ± 0.044
TSNNETNNGNDDNETEN [GRR1],3.03 ± 0.074,3.28 ± 0.077,3.14 ± 0.053,2.92 ± 0.055
LMEIHNILKVDSNSSSS [RGR1],2.58 ± 0.06,2.67 ± 0.06,2.63 ± 0.064,2.42 ± 0.049
SKILSQAPSELELQVAK [RPS7B],2.96 ± 0.057,3.07 ± 0.047,2.95 ± 0.063,3 ± 0.051
EDDSSNSCFSDGSQQNL [REC8],3.7 ± 0.22,,3.65 ± 0.12,3.32 ± 0.1
KQEIMMSDLFTFDWFIK [ISW2],2.85 ± 0.075,2.6 ± 0.055,2.46 ± 0.07,2.9 ± 0.047
SVKEDVKNNQELDQEYR [SMC4],,3.53 ± 0.25,,3.36 ± 0.14
TDSRTGQSTILVGSEIY [CDC53],2.77 ± 0.056,2.64 ± 0.066,2.94 ± 0.051,2.87 ± 0.065
NNDKREIQEELERFNKR [SMC1],2.49 ± 0.24,3.52 ± 0.13,3.4 ± 0.062,3.27 ± 0.068
YTEQFQHYKNNSISSQP [SSN2],2.76 ± 0.14,2.95 ± 0.11,3.09 ± 0.15,2.98 ± 0.1
AGTQSSKFSKQQAKGAF [RPL24A],3.2 ± 0.063,3.27 ± 0.062,3.27 ± 0.035,3.17 ± 0.049
ATESIKNRRRIHGELKT [SMC1],2.83 ± 0.17,3.09 ± 0.12,2.28 ± 0.26,2.61 ± 0.14
GAIKPFTPKLIYDFITL [ECM29],1.73 ± 0.081,1.84 ± 0.098,1.87 ± 0.3,1.36 ± 0.062
KKDQSVLKSHSNDFEEG [YMR129W/POM152],2.59 ± 0.087,2.99 ± 0.12,3.07 ± 0.071,2.95 ± 0.073
NLENMSIQDTSTVAKNV [YCG1],3.01 ± 0.052,3.12 ± 0.051,3.1 ± 0.04,3.21 ± 0.041
PNIHQNLLPKKSAKTAK [HTA2],2.88 ± 0.19,3.09 ± 0.29,,3 ± 0.14
KSKLFEWKSEFVVPTFG [SNM1],1.57 ± 0.058,1.63 ± 0.067,2.6 ± 0.08,1.32 ± 0.067

Sequence,protein stability index (doa10∆),protein stability index (pdr5∆),protein stability index (san1∆),protein stability index (ubr1∆)
KEEELIERDSLVDDENE [BRN1],,,,3.25 ± 0.15
YLEELQRKKQSDVLRFL [RPL15A],1.38 ± 0.16,2.25 ± 0.21,1.72 ± 0.26,1.5 ± 0.097
KWDNQSASRAKNMPVIY [RGR1],2.86 ± 0.13,2.41 ± 0.12,,3.39 ± 0.16
LQQKQQQRFQALQQQQQ [SWI1],1.35 ± 0.057,1.53 ± 0.047,1.37 ± 0.083,1.56 ± 0.063
YGFKQEIFDVTSNGLKK [FAS1],2.98 ± 0.12,3.3 ± 0.083,2.61 ± 0.085,2.89 ± 0.047
LASNFDNFDYFNQRDGE [MED1],3.3 ± 0.08,3.17 ± 0.09,3.2 ± 0.084,3.1 ± 0.11
FYSKNRLLITGTPLQNN [ISW2],,1.39 ± 0.17,,
LDPALLRPGRIDRKVEF [RPT1],,3.07 ± 0.28,3.34 ± 0.068,
NSSTSSTSNTPSPPNVI [YDL088C/ASM4],2.88 ± 0.05,2.88 ± 0.045,2.7 ± 0.052,3.06 ± 0.043
LVAIFGGQGNTDDYFEE [FAS1],3.15 ± 0.12,3.48 ± 0.083,3.26 ± 0.065,3.23 ± 0.064
VDQGQIYRDRSTFTKHL [ITC1],3.2 ± 0.06,3.33 ± 0.067,3.15 ± 0.042,3.15 ± 0.037
SLNLTDDVISNAGTNDN [MCD1],2.88 ± 0.047,2.97 ± 0.057,3.11 ± 0.036,2.96 ± 0.041
DETTVPSYYYYVDPETT [ROX3],2.99 ± 0.08,3.04 ± 0.072,3.01 ± 0.049,3.25 ± 0.065
SLIRNNLHAEGWPKLQL [ECM29],1.15 ± 0.056,1.25 ± 0.081,1.32 ± 0.17,1.04 ± 0.085
KSNTIPVTSIPSTNKKL [GAL11],2.67 ± 0.076,2.87 ± 0.073,2.9 ± 0.044,2.96 ± 0.057
SMRVKPSASLKLHHDLK [YMR129W/POM152],3.14 ± 0.079,2.98 ± 0.064,2.95 ± 0.062,3.1 ± 0.048
NSRNAIRKLVKNGTIVK [RPL19A],2.84 ± 0.07,2.9 ± 0.063,2.89 ± 0.057,2.79 ± 0.066
FLSPYISTHLKTICNLL [IRR1],1.57 ± 0.05,1.76 ± 0.065,1.69 ± 0.1,1.29 ± 0.038
KNGLYQEAFKIYQHLAS [SRP72],1.81 ± 0.061,2.14 ± 0.11,2.33 ± 0.23,2.77 ± 0.091
VKLMKNITDYETHPDNS [BRR2],2.37 ± 0.054,2.42 ± 0.042,2.54 ± 0.049,2.09 ± 0.04
CWPKDSRMRLIRQDVNL [PRP8],2.52 ± 0.081,2.68 ± 0.09,2.72 ± 0.067,2.76 ± 0.12
QLIDQFEWDISNSDNCP [SNF5],3.02 ± 0.092,3.18 ± 0.12,3.21 ± 0.058,3.27 ± 0.065
QPSDVMFNDLNSMDISM [MED2],2.63 ± 0.043,2.99 ± 0.053,3.11 ± 0.043,2.76 ± 0.048
FSFGAKANEKKESDESK [YJL041W/NSP1],2.58 ± 0.12,3.38 ± 0.089,3.52 ± 0.078,3.18 ± 0.18
ETEEIDPELLRSYIFGG [RPL5],3.22 ± 0.073,3.44 ± 0.082,3.3 ± 0.046,3.23 ± 0.075
QVQGQQQAQSFVGKKNT [SSN3],2.55 ± 0.053,2.69 ± 0.048,2.57 ± 0.052,2.57 ± 0.041
PSSMATLLKNLRKKLNF [YJR042W/NUP85],2.91 ± 0.078,2.73 ± 0.075,2.91 ± 0.079,2.89 ± 0.066
